Legend:
[1] = molecular target: native host protein; test: method not stated
[2] = molecular target: native host protein; test: method not stated; reference is wild type PmSLP-1 (SEQ.ID NO: 2)

Row | Substance | Kd [1] [nM] | factor by which Kd exceeds that of the native non-modified PmSLP [2] [fold]
1 | modified PmSLP-1 with V214D mutation (SEQ.ID NO: 65) | < 2000 | > 500
2 | modified PmSLP-1 with E240A mutation (SEQ.ID NO: 67) | < 2000 | > 500
3 | wild type PmSLP-1 protein of P. multocida (SEQ.ID NO: 2) | 30 | –

— patent US20250262292A1
